Measured values from patent US20230270857A1.

Biological target: CD3 on ex vivo expanded human T cells (Homo sapiens) (UniProt P07766)
Assay: flow cytometry referenced to quantum beads

Substance	molar amount of BsAb bound per T cell (zeptomoles per T cell)
HER2-BsAb (trastuzumab x huOKT3, IgG-[L]-scFv format) (bispecific antibody)	1 to 35
GD2-BsAb (hu3F8-BsAb, anti-GD2 hu3F8 x anti-CD3 huOKT3, IgG-[L]-scFv format) (bispecific antibody)	1 to 35
